Test system: ZIC2 zinc finger domains (five ZnF)
Experiment: ITC
Details: ITC: 300 mM NaCl, 50 mM potassium phosphate, pH 8.0, 25 C, EMSA: binding buffer not specified, 30 min 37 C, 6% PAGE 1x TBE 4 C

Row | Substance | Ka (RNA 60 uM into protein 5 uM) [M⁻¹] | Ka [M⁻¹]
1 | antisense PCAT92 RNA | 1e+06 | –
2 | sense PCAT92 RNA (predicted ZIC2-binding region) | – | 1e+09

Source: publication PMC6126693
